Tests used:
[1] = molecular target: cynomolgus (cyno) MS4A6A (cynomolgus); test: flow cytometry, hybridoma supernatant, HEK293 transfected with cyno MS4A6A over parental HEK293; Screen 1
[2] = molecular target: cynomolgus (cyno) MS4A6A (cynomolgus); test: flow cytometry, hybridoma supernatant, HEK293 transfected with cyno MS4A6A over parental HEK293; Screen 2

Sequence of cynomolgus (cyno) MS4A6A (cynomolgus) (Q9H2W1 other isoform, or with tags, fused parts or gaps): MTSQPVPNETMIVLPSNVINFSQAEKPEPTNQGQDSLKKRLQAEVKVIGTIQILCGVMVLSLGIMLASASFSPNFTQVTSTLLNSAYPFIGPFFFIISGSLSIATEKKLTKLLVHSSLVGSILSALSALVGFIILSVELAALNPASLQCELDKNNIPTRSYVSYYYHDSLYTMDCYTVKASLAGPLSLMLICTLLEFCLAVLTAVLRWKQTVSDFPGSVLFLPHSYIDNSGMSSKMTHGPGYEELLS

ratio of APC MFI on MS4A6A+/HEK parental cells [1]: 2.7
ratio of APC MFI on MS4A6A+/HEK parental cells [2]: 0.2
B1: 6A-20 (antibody, V domains shown)
VH: EVQLQQSGPELVKPGASVKMSCKASGYTFTDYFMKWVKQSHGKSLEWIGDINPKNGDTFYNQKFKGKATLTVDKSSSTAYMQLNSLTSEDSAVYYCARPGYFDVWGAGTTVTVSS
VL: DIVMTQAAPSVPVTPGESVSISCRSSKSLLHSDGNTYLYWFLQRPGQSPQLLIYRMSNLAPGVPDRFSGSGSGTAFTLRISRVEAEDVGVYYCMQHLEFPFIFGAGTKLELK

From patent US20220380455A1
